19 molecules from patent US20260048158A1 (AKTIS ONCOLOGY, published 2026) can be followed below.

Primed or numbered codes have the meaning given here. The star is where a group is joined. Biotin = O=C1N[C@H]2[C@H](CS[C@H]2CCCCC(=O)*)N1; PEG4′ = not defined here

The target in assay [1] is T1, B7-H3 expressed on the surface of cells (MCF7 cells; B7-H3-expressing cancer cells) (Homo sapiens (Human), UniProt Q5ZPR3 29-534).
T1 construct: Endogenous B7-H3 on MCF7 cells (DELFIA) and on an unnamed cancer cell line (flow cytometry); also called CD276
T1 sequence: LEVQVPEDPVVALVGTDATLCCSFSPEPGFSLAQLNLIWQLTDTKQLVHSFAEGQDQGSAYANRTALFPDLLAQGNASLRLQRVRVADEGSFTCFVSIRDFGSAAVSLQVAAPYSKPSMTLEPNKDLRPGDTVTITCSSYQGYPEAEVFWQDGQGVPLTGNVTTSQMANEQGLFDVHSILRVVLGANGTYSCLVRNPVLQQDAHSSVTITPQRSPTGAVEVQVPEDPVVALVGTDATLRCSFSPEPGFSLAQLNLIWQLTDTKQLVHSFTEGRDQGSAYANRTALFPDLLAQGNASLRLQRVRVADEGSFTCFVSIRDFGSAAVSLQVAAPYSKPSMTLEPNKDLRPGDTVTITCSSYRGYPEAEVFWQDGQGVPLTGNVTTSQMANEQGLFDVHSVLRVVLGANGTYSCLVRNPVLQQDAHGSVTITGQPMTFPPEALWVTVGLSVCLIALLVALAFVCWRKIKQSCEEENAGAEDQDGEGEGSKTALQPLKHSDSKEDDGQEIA
Nature of the assay: DELFIA competition on cells expressing B7-H3 (as in Example 14); competitor: europium-chelate miniprotein tracer.

The target in assay [2] is T2, His-tagged B7-H3 protein (ThermoFisher, catalog #B7-H3_NP_001019907) (Homo sapiens (Human), UniProt Q5ZPR3 29-466).
T2 construct: Bought protein immobilised for SPR; also called ligand; target protein; not shown: His tag
T2 sequence: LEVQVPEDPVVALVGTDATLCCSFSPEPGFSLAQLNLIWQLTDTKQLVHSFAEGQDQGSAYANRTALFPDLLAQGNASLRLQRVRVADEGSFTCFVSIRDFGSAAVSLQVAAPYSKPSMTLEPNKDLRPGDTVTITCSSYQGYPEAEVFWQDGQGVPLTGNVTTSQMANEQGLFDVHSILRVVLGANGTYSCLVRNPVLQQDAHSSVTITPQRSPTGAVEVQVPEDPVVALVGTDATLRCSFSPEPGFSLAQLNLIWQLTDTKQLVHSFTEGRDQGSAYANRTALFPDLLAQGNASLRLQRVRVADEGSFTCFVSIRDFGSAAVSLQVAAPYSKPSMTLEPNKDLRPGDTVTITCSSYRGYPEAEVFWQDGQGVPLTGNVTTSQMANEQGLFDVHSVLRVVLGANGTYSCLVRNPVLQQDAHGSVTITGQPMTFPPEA
In words: SPR (as in Example 2). The protocol:
Surface plasmon resonance (SPR) analyses were performed using Biacore T200 (GE Healthcare). His-tagged B7-H3 protein (ThermoFisher, catalog #B7-H3_NP_001019907), (“ligand”) was immobilized to a Series S NTA chip (Cytiva #28994951). Running buffer was 0.05% Surfactant P20 in HEPES buffered saline (HBS-P), pH 7.4 (Cytiva). Immobilization was performed at 25° C. […] Pulsatile injections were made to target a specific immobilization level. […] Increase in signal (RU) is proportional to an increase in binding events between the analyte and ligand surface. Then injection was then stopped, and dissociation was measured. The resulting sensorgram is reference surface and blank injection subtracted prior to curve fitting. […] KD was calculated using a 1:1 binding model at 25° C.
(§1) Equilibrium binding affinity (KD) was determined using SPR (as in Example 2) or a live cell binding assay (DELFIA) on MCF7 cells that express B7-H3. Binding inhibition constant (Kᵢ) of miniprotein ligands was also determined using MCF7 cells expressing a B7-H3. Cells were dispensed into a 384-well plate and incubated at 37° C. in 5% CO₂ overnight.

Assay [3] has as its target T1, B7-H3 expressed on the surface of cells …. In words: DELFIA on-cell competition assay on MCF7 cells (FIG. 15); single experiment of FIG. 15. As to the method: as §1
(§2) The plate was incubated for 1.5 h at room temperature to reach equilibrium. Cells were then washed to remove unbound ligand and treated according to manufacturer instructions for a DELFIA® (dissociation-enhanced lanthanide fluorescent immunoassay, Revvity Health Sciences). In brief, 2 M HCl was added to each well and incubated for 2 h at 37° C. Following this step, 2 M NaOH and fluorescent inducer solution were added to each well and incubated for 30 minutes at room temperature. Plates were read on an Envision plate reader and a curve-fitting model was applied to estimate KD and Kᵢ values.

For assay [4] the target is unchanged. In words: DELFIA competition on live MCF7 cells expressing B7-H3; fixed tracer: europium-chelate miniprotein. As to the method:
as §1, §2

The target is the same in assay [5]. In words: DELFIA competition assay on live MCF7 cells expressing B7-H3; the unlabeled competing ligand is varied against a fixed concentration of the europium-chelate miniprotein tracer. The protocol:
as §1, §2

In assay [1], {Biotin-PEG4′}-CAREKIAALSEIIWLPCLTYAQIQAFIAALNDDPCQSSEILSEAKELCS-NH2 (designed binder, disulfide (positions not given here)) [Compound C290] had a Ki of 13.8 nM.

With {Biotin-PEG4′}-CAREKIAALSEIIWLPCLTYAQIKAFIAALNDDPCQSSEILSEAKELCS-NH2 (designed binder, disulfide (positions not given here)) [Compound C284], in assay [1], affinity was put at a Ki of 2.02 nM.

In turn, {Biotin-PEG4′}-CAREKIAALSEIIWLPCLTYAQIVAFIAALNDDPCQSSEILSEAKELCS-NH2 (designed binder, disulfide (positions not given here)) [Compound C291] gave a Ki in assay [1] of 7.7 nM.

Consider {Biotin-PEG4′}-CAREKIAALSEIIWLPCLTYAQILAFIAALNDDPCQSSEILSEAKELCS-NH2 (designed binder, disulfide (positions not given here)) [Compound C286], for which, in assay [1], the Ki came out at 23.9 nM.

B1: Compound C245 (designed binder)
chain: CAKEKIAALSEIIWLPCLTYAQIXAFIAALNDDPCQSSELLSEAKELNDSQCP
modifications: (homo-leucine) at 24; N-terminal Biotin-PEG4; C-terminal NH2; disulfide bridges between cysteine pairs (Cys1-Cys35 and Cys17-Cys52 named for SEQ ID NO: 213)
In turn, B1 registered a Ki in assay [1] of 2.8 nM.

B2: Compound C253 (designed binder)
chain: CAKEKIAALSEIIWLPCLTYAQIXAFIAALNDDPCQSSELLSEAKELNDSQCP
modifications: (Kme2) at 24; N-terminal Biotin-PEG4; C-terminal NH2; disulfide bridges between cysteine pairs
B2 showed an inhibitory constant (Ki) in assay [1] of 5.36 nM.

B3: Compound C255 (designed binder)
chain: CAKEKIAALSEIIWLPCLTYAQIXAFIAALNDDPCQSSELLSEAKELNDSQCP
modifications: (Kme3) at 24; N-terminal Biotin-PEG4; C-terminal NH2; disulfide bridges between cysteine pairs
In assay [1], B3 showed an inhibition constant Ki of 8.75 nM.

B4: Compound C234 (designed binder)
chain: CAXEKIAALSEIIWLPCLTYAQIXAFIAALNDDPCQSSEILSEAKELCS
modifications: (Kme3) trimethyllysine at 3; (Kme2) dimethyllysine at 24; N-terminal Biotin-PEG4; C-terminal NH2; two disulfide bridges among Cys1, Cys17, Cys35, Cys48
notes: also called C298
In the case of B4, the dissociation constant Kd in assay [2] was 1.36 nM. Moreover, the inhibition constant Ki in assay [3] is about 1.36 nM; in assay [4], 1.72 nM. The “IC50 (read off the curve)” value in assay [5] is about 3 nM.

B5: Compound C302 (designed binder)
chain: CAREKIAALSEIIWLPCLTYAQIXAFIAALNDDPCQSANILSEAXELCS
modifications: (Kme) monomethyllysine at 24 and 45; N-terminal Biotin-PEG4; C-terminal NH2; two disulfide bridges among Cys1, Cys17, Cys35, Cys48
Consider B5, for which the dissociation constant (Kd) in assay [2] amounted to 0.558 nM. This molecule also gave a Ki in assay [4] of 1.34 nM.

B6: Compound C318 (designed binder)
chain: CAXEKIAALSEIIWLPCLTYAQIXAFIAXLNXDPCQSSEILSEAXELCS
modifications: (Kme3) at 3; (Kme2) at 24; (Kme) at 29 and 45; (Cit) citrulline at 32; N-terminal Biotin-PEG4; C-terminal NH2; two disulfide bridges among Cys1, Cys17, Cys35, Cys48
As to B6, the equilibrium dissociation constant (Kd) in assay [2] was determined as 1.24 nM. The molecule further gave a Ki in assay [4] of 1.24 nM.

B7: Compound C308 (designed binder)
chain: CAXEKIAALSEIIWLPCLTYAQIXAFIAXLNXDPCQSSEILSEAXELCS
modifications: (Kme3) at 3; (Kme) at 24, 29, 32 and 45; N-terminal Biotin-PEG4; C-terminal NH2; two disulfide bridges among Cys1, Cys17, Cys35, Cys48
B7 showed a dissociation constant Kd in assay [2] of 0.482 nM. Also, in assay [4], the Ki was found to be 0.872 nM.

B8: Compound C608 (designed binder)
chain: CAXEKIAALSXIIWLPCLTYAQIXAFIAALNDDPCNSSEILSEAXELCS
modifications: (Kme3) at 3; (E(CO-)) at 11 and (K(NH-)) at 45 joined by a lactam bridge; (Kme) at 24; N-terminal Biotin-PEG4; C-terminal NH2; two disulfide bridges
notes: Three constraints (two disulfide bridges, one lactam bridge)
In assay [4], B8 gave an inhibition constant (Ki) of 3.58 nM.

B9: Compound C300 (designed binder)
chain: CAREKIAALSEIIWLPCLTYAQIXAFIAALNDDPCQSAEILSEAKELCS
modifications: (Kme2) at 24; N-terminal Biotin-PEG4; C-terminal NH2; two disulfide bridges among Cys1, Cys17, Cys35, Cys48
B9 returned a Kd in assay [2] of 0.506 nM. The affinity in assay [4] corresponds to a Ki of 1.91 nM.

B10: Compound C304 (designed binder)
chain: CAXEKIAALSEIIWLPCLTYAQIXAFIAALNDDPCQSSEILSEAXELCS
modifications: (Kme3) at 3; (Kme) at 24 and 45; N-terminal Biotin-PEG4; C-terminal NH2; two disulfide bridges among Cys1, Cys17, Cys35, Cys48
Molecule B10 showed a Kd in assay [2] of 1.43 nM. In assay [4], the inhibition constant (Ki) turned out to be 2.24 nM.

B11: Compound C306 (designed binder)
chain: CAXEKIAALSEIIWLPCLTYAQIXAFIXALNDDPCQSSEILSEAXELCS
modifications: (Kme3) at 3; (Kme) at 24, 28 and 45; N-terminal Biotin-PEG4; C-terminal NH2; two disulfide bridges among Cys1, Cys17, Cys35, Cys48
The molecule B11 yielded a Kd in assay [2] of 0.761 nM. For the same molecule, the Ki in assay [4] was determined as 1.24 nM.

B12: Compound C316 (designed binder)
chain: CAXEKIAALSEIIWLPCLTYAQIXAFIARLNDDPCQSAEILSEAXELCS
modifications: (Rme) methylated arginine at 3; (Kme) at 24 and 45; N-terminal Biotin-PEG4; C-terminal NH2; two disulfide bridges among Cys1, Cys17, Cys35, Cys48
On to B12, for which the Kd in assay [2] stood at 0.621 nM. This molecule also had an inhibitory constant (Ki) in assay [4] of 0.873 nM.

As to CAREKIAALSEIIWLPCLTYAQIXAFIAALNDDPCQSSEILSEAKELCS (designed binder, (Kme2) at 24; N-terminal Biotin-PEG4; C-terminal NH2; two disulfide bridges) [Compound C275], the Ki in assay [1] was 1.42 nM.

B13: Compound C312 (designed binder)
chain: CAXEKIAALSEIIWLPCLTYAQIXAFIAALNDDPCNSSEILSEAXELCS
modifications: (Kme3) at 3; (Kme) at 24 and 45; N-terminal Biotin-PEG4; C-terminal NH2; two disulfide bridges among Cys1, Cys17, Cys35, Cys48
Turning to B13, in assay [2], the dissociation constant Kd is 0.485 nM. For the same molecule, in assay [4], the Ki came to 1.01 nM.

B14: Compound C310 (designed binder)
chain: CAXEKIAALSEIIWLPCLNYAQIXAFIAALNDDPCQSSEILSEAXELCS
modifications: (Kme3) at 3; (Kme) at 24 and 45; N-terminal Biotin-PEG4; C-terminal NH2; two disulfide bridges among Cys1, Cys17, Cys35, Cys48
In the case of B14, in assay [2], the affinity, expressed as Kd, was 0.782 nM. Moreover, in assay [4], the Ki was determined as 0.886 nM.
